These results are taken from patent US20040180342, “Multimers of S. solfataricus single-stranded DNA-binding protein and methods of use thereof” (REGENTS OF THE UNIVERSITY OF CALIFORNIA, published 2004).

Series [1] has as its target T1, SsoSSB (S. solfataricus SSB, SSO2364) (Sulfolobus solfataricus, UniProt Q97W73 SEQ:1-148).
T1 sequence: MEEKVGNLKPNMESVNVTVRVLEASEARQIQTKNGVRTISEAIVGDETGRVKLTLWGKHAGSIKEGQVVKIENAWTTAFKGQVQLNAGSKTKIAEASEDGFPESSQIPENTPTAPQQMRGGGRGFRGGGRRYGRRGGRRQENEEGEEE
Nature of the series: competition. The settings on record: linear pUC19 at 100-fold molar (nucleotide) excess did not alter shift of 63-mer; 75 C.

The target of series [2] is T1, SsoSSB (S. solfataricus SSB, SSO2364). Nature of the series: EMSA; 10 uM nucleotides, constant mobility reached at 2 uM protein; saturation about 1 SSB per 5 nt; non-cooperative; 75 C, 30 mM Tris OAc pH 7.5, 10 mM MgOAc2, 5 mM. The settings on record: tags: untagged, expressed from pET21a in E. coli, heat treated at 80 C; chain copies: 4 (tetramer main form in solution; dimer and monomer also present); label: 5'-32P (T4 polynucleotide kinase end label). The method, then:
To determine the occluded binding site size of the protein and to evaluate the activity of the SsoSSB protein, we performed acrylamide gel mobility-shift assays with a radioactively labeled single-stranded oligonucleotide that was 63 nucleotides in length (FIG. 5). When a fixed quantity of radiolabeled oligonucleotide was incubated with increasing quantities of protein, a band of reduced mobility was observed. The apparent mobility further decreased upon addition of more protein, finally achieving a constant mobility after the addition of 2 μM protein. The absence of discrete species implied rapid equilibration between bound and free forms of the complexes, and consistent with this possibility, more discrete species were visualized when electrophoresis was performed more rapidly (at high voltage). […] The M. jannaschii RPA protein has a site size of 15 to 20 nucleotides (Kelly, T. J. et al., Proc Natl Acad Sci USA 95:14634-14639 (1998)) whereas the site size of E. coli SSB protein, depending on solution conditions, varies from 8 to 16 nucleotides per monomer. The apparent site size of SsoSSB protein is similar to the 7 nucleotide site size observed for phage T4 SSB protein, gp32. […] The observed band-retardation pattern is likely the result of a combination of this non-cooperative binding and rapid equilibration of protein-DNA complexes during electrophoresis.

Turning to linearized pUC19, the fold lower affinity than ssDNA (competition) (fold lower affinity than ssDNA) in series [1] was above 100.

B1: 63-mer oligonucleotide (ssDNA)
DNA: ACAGCACCAATGAAATCTATTAAGCTCCTCATCGTCCGCAAAAATATCGTCACCTCAAAAGGA
With B1, the binding result in series [2] is “binds”.
